B1: anti-SpA monoclonal antibody mAb-3 in IgG3 scaffold (antibody, V domains shown)
VH: QVQLVQSGAEVKKPGASVKVSCKASGYTFSHYYMHWVRQAPGQGLEWMGIINPRYGSTSYAQKFQGRVTMTRDTSTSTVYMELSSLRSEDTAVYYCARDGEVGARDLGWFDPWGQGTLVTVSS
VL: EIVLTQSPATLSVSPGERATLSCRASQSVSSNLAWYQQKPGQAPRLLIYGASTRATGIPARFSGSGSGTEFTLTISSLQSEDFAVYYCQQYTPLPWTFGGGTKVEIK
notes: heavy variable region; human IgG3 scaffold (heavy constant region); light chain; IgG3; also called IgG3 mAb-3; source: Expi293, transient transfection, purified (protein G)
B2: anti-SpA monoclonal antibody mAb-2 in IgG3 scaffold (antibody, V domains shown)
VH: QVQLVQSGAEVKKPGASVKVSCKASGYTFTRYYMHWVRQAPGQGLEWMGWINPPSGGTNYAQKFQGRVTMTRDTSTSTVYMELSSLRSEDTAVYYCARDPPMGQGMDVWGQGTLVTVSS
VL: EIVLTQSPATLSVSPGERATLSCRASQSISSYLNWYQQKPGQAPRLLIYAASSLQSGIPARFSGSGSGTEFTLTISSLQSEDFAVYYCQQSFVAPFTFGGGTKVEIK
notes: heavy variable region; human IgG3 scaffold (heavy constant region); light chain; IgG3; also called IgG3 mAb-2; source: Expi293, transient transfection, purified (protein G)
B3: anti-SpA monoclonal antibody mAb-1 in IgG3 scaffold (antibody, V domains shown)
VH: EVQLVESGGGLVQPGGSLRLSCAASGFTFSTYGMSWVRQAPGKGLEWVSSITGSGRSTFYADSVKGRFTISRDNSTNTLSLQMNSLRAEDTAVYYCARSPADIVTGYYPWWFDLWGQGTLVTVSS
VL: DIQMTQSPSSLSASIGDRVTITCRASQSINTYLNWYQQKPGKAPRLLIAGASSLQSGVPSRFSGSGSGTDFTLTISSLQPEDFATYYCQQANSFPLTFGQGTRLEIK
notes: heavy variable region; human IgG3 scaffold (heavy constant region); light chain; IgG3; also called IgG3 mAb-1; source: Expi293, transient transfection, purified (protein G)

Each binder was assayed against T1, SpA wild type (Staphylococcal protein A, recombinant) (Staphylococcus aureus NCTC 8325, UniProt P02976, biotinylated (only for the beads of the phagocytosis assays); chemically coupled by amines to MagPlex beads in the Luminex assays) (assay: Luminex bead displacement assay; SpAwt coupled to MagPlex beads, saturated with biotinylated human IgGs (8 µg/mL, 30 min, room temperature), washed, then incubated with serially diluted IgG3 mAbs 1-4 or IgG3 isotype control in PBS; remaining human IgGs revealed with streptavidin-PE). Conditions: both partners purified.
T1 construct: Staphylococcal protein A (SpA) of S. aureus strain NCTC 8325, locus tag SAOUHSC_00069; In the functional rows on bacteria the SpA is that on S. aureus USA300 lac, not this recombinant protein; also called SpAwt
T1 sequence (P02976 37-485): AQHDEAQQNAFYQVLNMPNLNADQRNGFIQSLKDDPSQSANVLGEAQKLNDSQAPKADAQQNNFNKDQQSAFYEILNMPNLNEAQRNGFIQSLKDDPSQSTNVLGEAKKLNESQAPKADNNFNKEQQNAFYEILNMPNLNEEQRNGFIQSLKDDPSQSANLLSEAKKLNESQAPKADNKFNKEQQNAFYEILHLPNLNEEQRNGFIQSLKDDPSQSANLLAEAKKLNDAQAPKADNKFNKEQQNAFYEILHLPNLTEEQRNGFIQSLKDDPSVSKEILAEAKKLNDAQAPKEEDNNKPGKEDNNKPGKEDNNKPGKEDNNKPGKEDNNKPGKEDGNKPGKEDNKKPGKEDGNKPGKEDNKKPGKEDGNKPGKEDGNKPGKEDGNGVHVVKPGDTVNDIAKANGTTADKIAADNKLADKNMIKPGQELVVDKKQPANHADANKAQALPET

Q: Does B1 bind?
A: Result: binds

Q: Does B2 bind?
A: Result: binds

Q: Does B3 bind?
A: Result: binds
